No end group written: not given here.
Biological target: the receptor on THP-1 cells
Test: cell-based or functional assay

B1: recombinant human relaxin 800828 (WT, wild-type) (ligand)
chain 1: DSWMEEVIKLCGRELVRAQIAICGMSTWS
chain 2: QLYSALANKCCHVGCTKRSLARFC
modifications: not fully specified; ends and bridges not checked
In the case of B1, the “EC50 (ng/ml) of cAMP induced in THP-1 cells (cAMP ELISA)” value is reported as 3.03 ng/mL.

— US20160326230A1 (SHANGHAI HENGRUI PHARMACEUTICAL, published 2016)
